Here are results for one molecule from PMC11656211.

Ends that are not written are not given here.

The target of the assay is TLR4/MD2 complex on HEK293-hTLR4-MD2-CD14 cells (human) (UniProt O00206).

B1: HiLyte Fluor 488-labeled GK-1 (peptide)
peptide: GYYYPSDPNTFYAPPYSA
modifications: also: HiLyte Fluor 488 label, position not given here
As to B1, the uptake of GK-1-HF488 (MFI by flow cytometry after trypsin treatment), HEK293-TLR4 cells against HEK293-null cells, 1 h at 4 °C, 5 to 50 uM turned out to be 5 fold and the uptake of GK-1-HF488 (MFI by flow cytometry after trypsin treatment), HEK293-TLR4 cells against HEK293-null cells, 1 h at 37 °C, 5 to 50 uM was < 30 fold.
